# Patent US12428627B2, “Mutant p-hydroxyphenylpyruvate dioxygenase, and coding nucleic acid and use thereof” (Qingdao Kingagroot Chemical Compound Co., Ltd., priority 2018, dated 2025)
# Numbering of substitutions follows the chain as printed. Names may count otherwise.
# B1: 103: single-site mutant rice HPPD, A103S (protein)
# chain: MPPTPTPTATTGAVSAAAAAGENAGFRLVGHRRFVRANPRSDRFQALAFHHVELWCSDAASAAGRFAFALGAPLAARSDLSTGNSAHASLLLRSASVAFLFTSPYGGDHGVGADAATTASIPSFSPGAARRFAADHGLAVHAVALRVADAADAFRASVAAGARPAFQPADLGGGFGLAEVELYGDVVLRFVSHPDGADAPFLPGFEGVSNPGAVDYGLRRFDHVVGNVPELAPVAAYISGFTGFHEFAEFTAEDVGTAESGLNSVVLANNAETVLLPLNEPVHGTKRRSQIQTYLDHHGGPGVQHIALASDDVLGTLREMRARSAMGGFEFLAPPPPNYYDGVRRRAGDVLSEEQINECQELGVLVDRDDQGVLLQIFTKPVGDRPTFFLEMIQRIGCMEKDESGQEYQKGGCGGFGKGNFSELFKSIEEYEKSLEAKQAPTVQGS
# modifications: The amino acid sequence of rice HPPD mutant (OsHPPD_A103S)
# notes: single-site mutant rice HPPD, A103S
# B2: N338S/G342D/R346C (protein)
# chain: B1 chain with S57A, S103A, N338S, G342D, R346C
# B3: N338D/G342D/R346C: mutant rice HPPD (protein, listed as Oryza sativa)
# chain: B1 chain with S57A, S103A, N338D, G342D, R346C
# modifications: The amino acid sequence of Wild-Type rice HPPD protein (OsHPPD _WT)
# B4: G342D: single-site mutant rice HPPD (protein, listed as Oryza sativa)
# chain: B1 chain with S57A, S103A, G342D
# modifications: The amino acid sequence of Wild-Type rice HPPD protein (OsHPPD _WT)
# B5: H141R/N338D/G342D/P386T: mutant rice HPPD (protein)
# chain: B1 chain with S57A, S103A, H141R, N338D, G342D, P386T
# B6: H141R/N338D/G342D: mutant rice HPPD (protein)
# chain: B1 chain with S57A, S103A, H141R, N338D, G342D
# B7: H141R/N338D/N420S: mutant rice HPPD (protein)
# chain: B1 chain with S57A, S103A, H141R, N338D, N420S
# B8: H141R/G342D/G419F: mutant rice HPPD (protein)
# chain: B1 chain with S57A, S103A, H141R, G342D, G419F
# B9: G342D/R346C: mutant rice HPPD (protein, listed as Oryza sativa)
# chain: B1 chain with S57A, S103A, G342D, R346C
# modifications: The amino acid sequence of Wild-Type rice HPPD protein (OsHPPD _WT)
# B10: H141R/N338D/G342D/R346C: mutant rice HPPD (protein)
# chain: B1 chain with S57A, S103A, H141R, N338D, G342D, R346C
# B11: H141R/N338D/G342D/K418P/G419F/N420S: mutant rice HPPD (protein)
# chain: B1 chain with S57A, S103A, H141R, N338D, G342D, K418P, G419F, N420S
# B12: N338D/G342D: mutant rice HPPD (protein)
# chain: B1 chain with S57A, S103A, N338D, G342D
# B13: H141R/N338D/G342D/R346H: mutant rice HPPD (protein)
# chain: B1 chain with S57A, S103A, H141R, N338D, G342D, R346H
# B14: H141R/G342D/K418P: mutant rice HPPD (protein)
# chain: B1 chain with S57A, S103A, H141R, G342D, K418P
# Test system: rice HPPD (OsHPPD)
# Assay: Color reaction of recombinant E. coli expressing wild-type or mutant rice HPPD, cultured in 96-well plate in medium containing an HPPD-inhibiting herbicide and tyrosine
# Format: cell-based, Oryza sativa
# Design: key to relative resistance to Tembotrione / relative resistance to Benzuofucaotong metabolic product / relative resistance to Huanbifucaotong / relative resistance to Topramezone / relative resistance to Mesotrione / resistance to Tembotrione / resistance to Benzucfucaotong metabolic product / resistance to Huanbifucaotong / resistance to Topramezone / resistance to Mesotrione: The more the plus sign “+”, the deeper the color and the higher the resistance/tolerance as compared to the wild type
# Conditions: Table 1, single-site mutants; estimated from color change, wild type = +
# From the text: The rice full-length OsHPPD enzyme has 446 amino acids and its amino acid sequence is set forth in SEQ ID NO: 2, wherein the amino acids 1-50 are considered to constitute a signal peptide which is responsible for directing into chloroplast (Siehl et al. Plant Physiol. 2014 November; 166(3): 1162-1176). Therefore, from the amino acid at the 51-position to the amino acid at the […], a saturated random mutation was made for each amino acid. This was achieved by performing a bridge PCR by using a primer containing a coding sequence of an amino acid to be mutated into NNK and another suitable conventional primer. In NNK, N represented A/T/G/C and K represented G/T, and the NNK codon could encode any one of 20 amino acids or terminators. Accordingly, this was a saturated mutation. Please see: Kille S. Acevedo-Rocha C G, Parra L P, Zhang Z G, Opperman D J, Reetz M T, Acevedo J P (2013) Reducing codon redundancy and screening effort of combinatorial protein libraries created by saturation mutagenesis. ACS Synth Biol 2(2):83-92; Directed Evolution Library Creation: methods and protocols 2nd ed. Edited by Elizabeth M. J. Gillam, Janine N. Copp and David F. Ackerley New York, NY United States: Springer, 2014. doi:10.1007/978-1-4939-1053-3. A large number of mutants would be produced. The mutant was cloned into a linearized pET-44a vector and transformed into E. co/i, which was cultivated by using a 96-well plate in a 2×YT culture solution containing an HPPD-inhibiting herbicide (such as 1-2 μM tembotrione) and a substrate tyrosine (1 g/L) in a shaker at 28° C. and 150 rpm for 24 hours for expression, and then the mutants were rapidly screened out according to their color browning. By using the method, 10 single amino acid mutants, A103S, H141R, H141 K, H141T, A165V, V191I, R220K, G342D, D370N and K410I, were screened out. The color reaction of these resistant mutants in the presence of tembotrione and the metabolic product of benzuofucaotong relative to that of the wild type was as shown in FIG. 1.
# Similarly, the color reaction of these mutants in the presence of the other three HPPD-inhibiting herbicides huanbifucaotong, topramezone and mesotrione were determined, see FIGS. 2 and 3. The resistance/tolerance of each of the mutants to the five herbicides was roughly estimated on the basis of color changes thereof and the results were shown in Table 1. The more the plus sign “+”, the deeper the color and the higher the resistance/tolerance as compared to the wild type.
# HPPD-inhibiting herbicides inhibited HPPD enzymatic activity. When tyrosine was converted to 4-hydroxyphenylpyruvate (HPP) under the action of tyrosine transaminase, the inactivated HPPD was unable to oxidize 4-hydroxyphenylpyruvate into homogentisic acid (HGA). HGA was dark brown. Therefore, if an HPPD mutant was resistant to or tolerant to an herbicide, after expressed in E. coli, the mutant could also oxidize 4-hydroxyphenylpyruvate into homogentisic acid, whereby dark brown appeared. Therefore, E. coli was cultured in a 2×YT culture medium containing a HPPD-inhibiting herbicide and a substrate tyrosine using a 96-well plate to express HPPD, and these mutants were rapidly screened according to their color changes. • (1) Preparation of 2×YT culture medium (1 g/L L-Tyr, 0.1 mM IPTG, 0.01 mM MnCl2 and 100 mg/L ampicillin were added). • (2) 0.1 mL of the above medium was added to each well of a 96-well plate, and the expression clones of OsHPPD wild type or mutant (OsHPPD Mut) from the E. coli plate obtained by the above transformation were subjected to liquid culture in the 96-well plate. HPPD inhibitors having a final concentration of 1 μM-20 μM were added according to different selected agents, for example, the final concentration of tembotrione was 1.7 μM while mesotrione was 10 μM. […]
row,Molecule,relative resistance to Huanbifucaotong
1,B1,+

# Same assay, conditions: compound 101
row,Molecule,resistance ranking in color reaction
1,B2,highest resistance
2,B3,highest resistance

# Same assay, conditions: tembotrione and metabolic product of benzuofucaotong, FIG. 1
row,Molecule,color change compared with wild type
1,B4,obviously deeper than that of the wild type

# Test system: OsHPPD
# Assay: HPPD enzyme activity assay: Km, Kcat and Kcat/Km of OsHPPDs
# Format: biochemical, Oryza sativa
# Conditions: not given
# Description: The rice OsHPPD protein and homogentisate 1,2-dioxygenase (HGD) were obtained by heterologously expressed in E. coli wherein the gene was inserted into the pET 15b expression vector and expressed in the BL21 (DE3) expression strain, and purified by the Ni-NTA resin. • (1) The HPPD open reading frame (ORF) of the positive clone was cloned into the pET-15b vector to form a 6His-HPPD expression vector, and transformed into the BL21 (DE3) cell. The expression strain was inoculated in 10 mL of 2×YT culture medium, and cultivated overnight on a shaker at 37° C. and 200 rpm. The 10 mL of the culture was inoculated in 1 L of 2×YT culture medium and cultivated until the OD600 reached 0.6-0.8, cooled to a temperature of 16° C., and subjected to induced-expression with 0.2 mM IPTG (isopropyl thiogalactoside) overnight. The strains were collected by centrifugation at 2800×g. • (2) The collected strains were re-suspended with the buffer A (50 mM Tris pH 8.0, 500 mM NaCl, 20 mM imidazole), to which PMSF (phenylmethanesulfonyl fluoride) at the final concentration of 1 mM and 250 μL of a protease inhibitor cocktail (i.e., a mixture of multiple protease inhibitors), and mixed. The cells were broken by ultrasound in ice-bath (40% total power, work for 3 seconds/6 seconds interval, 2×30 minutes (Ningbo Scientz Biotechnology Co., Ltd., Ningbo, China)), and centrifuged at 12000 rpm at 4° C. for 30 minutes; and the supernatant was filtered with a 0.22 μm filter membrane. • (3) Purification with the Ni-NTA column: the supernatant was in contact with the Ni-NTA resin, then rinsed with a buffer A containing 50 mM imidazole to remove the impurities, and finally, eluted with an elution buffer containing 400 mM imidazole. • (4) The approximate purity of the protein of interest was analyzed by SDS-PAGE. The eluates containing of the protein of interest were combined and concentrated by an ultrafiltration device (10 kDa molecular weight cut-off, Amicon Ultra). The solution was replaced with a solution containing 20 mM Tris-HCl and having a pH of 7.5 for at least 3 times to desalt. The total protein concentration was determined by the BCA method.
# (§1) • 1. The activity of a HPPD enzyme was determined by detecting the conversion of 4-hydroxyphenylpyruvate (4-HPP) to homogentisic acid (HGA) catalyzed by the HPPD enzyme and the conversion of HGA to maleylacetoacetate (MAA) catalyzed by homogentisate dioxygenase. […] 6 μl of 4-hydroxyphenylpyruvate (4-HPP) having a concentration that was as 50 times as the final concentration of the substrate were added to an ELSA plate, and then 294 μL of hydroxyethylpiperazine ethanesulfonic acid (HEPES) with a final concentration of 25 mM and pH of 7, 2 mM of Vitamin C, 10 mM FeSO4, 50 nM homogentisate dioxygenase and 5 to 240 nM HPPD enzyme were added thereto at one time. The final concentration of reaction substrate 4-HPP usually ranged from 1 to 100 μM. • 3. The absorbance changes of the reaction wells at 318 nm were continuously monitored by a UV ELISA detector (ReadMax 1900 photoabsorption type full-wavelength microplate reader) (Shanghai). • 4. Determination of Km, Kcat and Kcat/Km of OsHPPDs
# Vmax is the maximum catalytic reaction rate achievable by enzymatic catalysis. The Michaelis constant Km is the concentration of a substrate required when the enzyme catalyzed the reaction to achieve half of the maximum rate (Vmax). The Km value is a constant and independent of the enzyme concentration, and altered as substrate type, reaction temperature, pH, and ionic strength changed. […] is a catalytic constant of an enzyme and referred to the number of substrate molecules that could be catalyzed by an enzyme molecule or enzyme active center per second. KCat/Km represents the catalytic efficiency of enzyme. It could be seen from the data in the table that the catalytic efficiency of most HPPD mutants was enhanced.
row,Molecule,affinity to substrate (Km)
1,B5,not reduced
2,B6,not reduced

# Same assay, conditions: substrate 4-HPP
row,Molecule,Km
1,B7,5.1 µM
2,B5,9.7 µM
3,B8,7.9 µM
4,B9,5.9 µM
5,B10,7.4 µM
6,B11,23 µM
7,B12,2.1 µM
8,B13,7.6 µM
9,B14,30.6 µM
10,B3,9.5 µM
11,B6,6.3 µM

# Test system: OsHPPD proteins
# Assay: Inhibitory activity (IC50) of the herbicide 101 and huanbifucaotong against OsHPPD proteins
# Format: biochemical, Oryza sativa
# Conditions: herbicides 101 and huanbifucaotong
# Description: as §1
# • 5. Determination of inhibitory activity (IC50) of the herbicide 101 and huanbifucaotong against OsHPPD proteins
# Due to the unique properties of each of 101 and huangbifucaotong, the degree of the increased IC50 value is not completely consistent for the two HPPD herbicides.
row,Molecule,resistance in in vitro enzyme activity experiments
1,B5,relatively high resistance
2,B6,relatively high resistance
